Consider one substance from patent US20220033515A1.

The target in experiment [1] is human vascular endothelial growth factor (hVEGF) (human) (UniProt P15692). As to the kind of experiment: blocking ELISA: biotin-VEGF with hIgG, capture on Avastin.
The next experiment has as its target hVEGF165 (human) (UniProt P15692). Briefly: competition ELISA of hIgG, hVEGF165; axis 'Conc (nM)'. A general note: In an ELISA, binding on a coated surface is turned into a signal by an enzyme label.

Sequence of hVEGF165 (human) (P15692 other isoform, or with tags, fused parts or gaps limits assumed): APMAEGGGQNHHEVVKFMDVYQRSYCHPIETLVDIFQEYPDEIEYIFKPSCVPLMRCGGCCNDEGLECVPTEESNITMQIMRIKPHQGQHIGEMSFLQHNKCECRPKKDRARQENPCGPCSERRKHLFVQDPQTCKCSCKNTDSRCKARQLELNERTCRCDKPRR
Sequence of human vascular endothelial growth factor (hVEGF) (human) (P15692 other isoform, or with tags, fused parts or gaps limits assumed): as above

Regarding G6 hIgG (antibody), the IC50 (read off the curve) (in experiment [1]; with hVEGF165 (human)) was 3 nM in each case.
